From publication PMC9680732 (Biophysical Reports, 2021)

Target: linear triubiquitin (UniProt P0CG48)
Assay: BLI

linear triubiquitin, sequence (P0CG48 1-228): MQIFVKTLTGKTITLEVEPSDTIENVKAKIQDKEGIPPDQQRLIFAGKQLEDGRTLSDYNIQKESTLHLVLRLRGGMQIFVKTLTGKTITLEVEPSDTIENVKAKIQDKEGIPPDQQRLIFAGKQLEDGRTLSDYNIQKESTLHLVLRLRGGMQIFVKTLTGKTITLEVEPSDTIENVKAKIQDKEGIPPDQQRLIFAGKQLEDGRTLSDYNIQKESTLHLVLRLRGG

PKQRCRAPACDHFGNAKCNGYCNECFQFKQMYG (domain or fragment, biotin (singly biotinylated)) [singly biotinylated A20 zinc finger 7 (ZnF7: P758-G790)]: binds.
